Laboratory results reported in the supplement of paper PMC9876800.

Test system: peptide library, one residue held at a place counted from the S/T acceptor
Test: relative phosphorylation of the sub-library (ratio to the mean residue at this position); higher = residue favoured
How it was run: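 Purified recombinant kinases were reacted in 384-well plates with biotinylated degenerate peptide sub-libraries, each having one residue fixed at one position around a central Ser/Thr. The reaction mix contained 50 μM peptide plus 50 μM ATP spiked with γ-32P-ATP and ran for 90 min under kinase-specific conditions. Relative sub-library phosphorylation, taken from densitometry of phosphorimaged streptavidin membrane spots, is a ratio to the mean residue at that position.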

TLK2, construct: aa388-end, human, sequence (Q86UE8 388-772, looked up): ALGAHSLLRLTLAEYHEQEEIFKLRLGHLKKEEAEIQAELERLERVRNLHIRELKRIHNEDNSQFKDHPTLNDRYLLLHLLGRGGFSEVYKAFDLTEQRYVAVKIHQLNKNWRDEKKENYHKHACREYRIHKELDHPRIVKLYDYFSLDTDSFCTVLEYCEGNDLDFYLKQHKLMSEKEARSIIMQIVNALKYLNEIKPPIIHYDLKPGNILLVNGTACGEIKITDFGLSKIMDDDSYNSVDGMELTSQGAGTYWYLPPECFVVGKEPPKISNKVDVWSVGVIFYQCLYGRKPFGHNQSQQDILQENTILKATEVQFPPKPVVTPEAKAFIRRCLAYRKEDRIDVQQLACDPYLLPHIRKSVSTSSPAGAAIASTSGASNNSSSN
TAOK3, construct: Full length with a 14aa C-terminal extension from Gateway cloning, human, sequence (Q9H2K8 whole entry, looked up): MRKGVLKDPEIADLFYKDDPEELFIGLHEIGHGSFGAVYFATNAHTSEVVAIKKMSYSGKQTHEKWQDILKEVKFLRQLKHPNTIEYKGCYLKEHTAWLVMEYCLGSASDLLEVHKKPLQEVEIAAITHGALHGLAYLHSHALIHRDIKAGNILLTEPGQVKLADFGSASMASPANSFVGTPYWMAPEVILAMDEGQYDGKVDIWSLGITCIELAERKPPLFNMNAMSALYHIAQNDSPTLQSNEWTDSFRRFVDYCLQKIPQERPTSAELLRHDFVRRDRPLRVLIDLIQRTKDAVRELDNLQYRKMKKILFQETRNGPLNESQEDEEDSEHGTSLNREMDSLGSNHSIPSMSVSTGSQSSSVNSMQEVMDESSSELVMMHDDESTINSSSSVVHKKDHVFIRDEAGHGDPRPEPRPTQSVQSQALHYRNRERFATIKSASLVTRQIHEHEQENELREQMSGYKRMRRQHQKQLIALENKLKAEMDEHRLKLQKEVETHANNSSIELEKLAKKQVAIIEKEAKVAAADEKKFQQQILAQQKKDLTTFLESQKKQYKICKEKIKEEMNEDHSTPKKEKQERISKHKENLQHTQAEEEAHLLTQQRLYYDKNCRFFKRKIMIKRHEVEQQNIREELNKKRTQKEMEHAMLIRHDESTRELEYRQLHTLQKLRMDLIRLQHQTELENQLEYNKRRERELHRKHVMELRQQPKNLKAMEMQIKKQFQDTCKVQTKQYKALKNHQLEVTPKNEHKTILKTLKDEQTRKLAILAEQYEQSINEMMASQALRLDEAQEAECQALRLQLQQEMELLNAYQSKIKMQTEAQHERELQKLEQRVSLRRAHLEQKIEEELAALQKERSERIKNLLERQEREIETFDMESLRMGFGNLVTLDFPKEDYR

TAOK3, construct: Full length with a 14aa C-terminal extension from Gateway cloning, human (from UniProt Q9H2K8)
relative phosphorylation
Details	at +1	at +2	at +3	at +4	at -1	at -2	at -3	at -4	at -5
A fixed	0.522	0.851	0.743	0.866	0.788	1.15	0.775	1.01	1.16
D fixed	0.371	0.801	0.592	0.65	0.99	1.03	0.879	1.47	1.59
E fixed	0.343	0.54	0.547	0.658	0.546	0.718	0.916	1.54	1.36
F fixed	1.34	0.424	0.68	0.771	0.709	1.35	0.543	0.663	0.81
G fixed	0.605	0.943	1.38	1.11	2.03	1.43	1.4	1.27	1.17
H fixed	0.973	1.21	1.19	1.18	1.28	0.92	0.95	1.04	1.09
I fixed	1.52	0.593	0.578	0.859	0.3	0.508	0.416	0.497	0.596
K fixed	0.647	2.32	2.11	1.76	1.54	0.836	2.45	1.15	1.35
L fixed	1.63	0.507	0.707	0.681	0.717	0.526	0.445	0.536	0.627
M fixed	1.52	0.612	0.606	0.718	0.911	0.805	0.566	0.682	0.629
N fixed	0.595	1.73	1.08	0.891	1.61	1.15	1.28	1.42	1.23
P fixed	0.551	1.09	1.14	0.945	0.707	1.17	1.23	1.38	0.984
Q fixed	0.685	0.941	0.987	1.04	1.08	0.856	1.12	1.12	0.961
R fixed	0.583	2.5	2.29	1.62	1.37	0.959	1.73	1.11	1.13
V fixed	1.05	0.659	0.558	0.753	0.373	0.541	0.459	0.562	0.634
W fixed	2.79	0.578	0.971	1.19	0.807	0.932	0.832	0.819	0.92
Y fixed	1.28	0.704	0.854	1.31	1.24	2.12	1	0.726	0.781
pThr fixed	0.887	0.729	0.858	0.782	0.588	1.11	1.23	1.49	1.36
pTyr fixed	0.719	0.757	0.752	0.848	2.28	1.3	1.18	1.33	1.47

TLK2, construct: aa388-end, human (from UniProt Q86UE8)
relative phosphorylation
Details	at +1	at +2	at +3	at +4	at -1	at -2	at -3	at -4	at -5
A fixed	0.501	0.95	1.3	1.23	1.13	1.14	1.07	1.1	1.22
D fixed	0.281	1.07	1.01	1.06	0.949	2.24	2	1.67	1.91
E fixed	0.329	0.512	1.33	0.879	0.751	3.21	1.46	1.68	1.45
F fixed	0.533	1.32	1.19	1.26	1.04	0.553	0.674	0.878	0.801
G fixed	0.36	1.69	1.69	1.24	0.72	1.69	1.42	1.27	1.19
H fixed	0.799	1.45	0.932	0.899	1.6	1.05	0.979	1.07	1.05
I fixed	0.995	0.768	0.583	0.843	0.542	0.435	0.531	0.668	0.621
K fixed	0.624	0.451	0.52	0.603	0.95	0.502	0.702	0.703	0.879
L fixed	1.34	0.873	0.654	0.867	0.61	0.418	0.637	0.678	0.663
M fixed	2.11	1.27	0.823	0.913	0.862	0.592	0.77	0.857	0.737
N fixed	2.41	0.671	0.682	0.692	1.29	1.22	1.26	1.19	1.08
P fixed	0.225	1.03	1.66	1.79	0.634	0.77	1.36	1.17	1
Q fixed	2.67	1.19	0.765	0.782	1.23	1.06	0.972	0.852	0.865
R fixed	1.53	0.482	0.483	0.506	0.827	0.499	0.743	0.674	0.814
V fixed	1.06	0.675	0.814	0.944	0.807	0.495	0.584	0.684	0.72
W fixed	0.686	1.62	1.42	1.35	1.58	0.5	0.953	1.06	1.1
Y fixed	0.543	0.974	1.13	1.13	1.48	0.638	0.879	0.803	0.894
pThr fixed	0.552	0.633	1.09	1.41	0.434	0.883	1.29	1.31	1.31
pTyr fixed	0.65	1.52	1.94	1.76	1.4	2.55	1.35	1.36	1.4
